Data reported in the RNAGym collection of RNA variant scans (doi:10.1073/pnas.2313332121).
This sample holds only a part of the variants without activity.

B1: TPR 5TU (parent)
chain: GGAUCUUCUCGAUCUAACAAAAAAGACAAAUCUGCCACAAAGCUUGAGAGCAUCUUCGGAUGCAGAGGCGGCAGCCUUCGGUGGCGCGAUAGCGCCAACGUUCUCAACUAUGACACGCAAAACGCGUGCUCCGUUGAAUGGAGUUUAUCAUG

Variants of: B1
Experiment: polymerase ribozyme fitness, log enrichment relative to wild type (log ratio); higher = more active; in vitro selection for triplet polymerase activity
In short: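 A heterodimeric triplet polymerase ribozyme had each of its subunits mutagenized by PCR into a library, which was transcribed. One round of in vitro selection, done in triplicate, annealed each library with a biotinylated primer, its partner subunit and triplets, then incubated it frozen at −7 °C before gel excision of extended constructs, streptavidin-bead capture and RT-PCR. Fitness is the logarithm of genotype enrichment relative to wild-type enrichment, based on Illumina sequencing of inputs and outputs and inverse-variance-weighted replicate averages. A base-2 logarithm is used, and genotypes were kept only with ≥10 input reads and ≥1 read per output.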

Compared with GGAUCUUCUCGAUCUAACAAAAAAGACAAAUCUGCCACAAAGCUUGAGAACAUCUUCGGAUGCAGAGGCGGCAGCCUUCGGUGGUGCGAUAGCGCCAACGUUCUCAACUAUGACACGCAAAACGCGUGCUCCGUUGAAUGGAGUUUAUCAUG, GGAUCUUCUCGAUCUAACAAAAAAGACAAAUCUGCCACAAAGCUUGAGAACAUCUUCGGAUGCAGAGGCGGCAGCCUUCGGUGGCGCGAUAGCGCCAACGUUCUCAACUAUGACACGGAAAACGCGUGCUCCGUUGAAUGGAGUUUAUCAUG is lower in “polymerase ribozyme fitness (log ratio)” value: -1.67 for the first, -2.21 for the second.

Going from GGAUCUUCUCGAUCUAACAAAAAAGACAAAUCUGCCACAAAGCUUGAGAACAUCUUCGGAUGCAGAGGCGGCAGGCUUCGGUGGCGCGAGAGCGCCAACGUUCUCAACUACGACACGCAAAAGGCGUGCUCCGUUGAAAGGAGCUUAUCAUG to GGAUCUUCUCGAUCUAACAAAAAAGACAAAUCUGCCACAAAGCUUGAGAACAUCUUCGGAUGCAGAGGCGGUAGCCUUCGGUGGAGCGAUAGCGCCAACGUUCUCAACUAUGACACGCAAAACGCGUGCUCCGUUGAAUGGAGUUUAUCAUG, the “polymerase ribozyme fitness (log ratio)” value rises from ≤ -4.2 to -2.69.

Compared with GGAUCUUCUCGAUCUAACAAAAAAGACAAAUCUGCCACAAAGCUUGAGAACAUCUUCGGAUGCAGAGGCGGCAGCCUUCGGUGGCGCGAUAGCGCUAACGUUCUCAACUAUGACACGCAAAACGGGUGCUCCGUUGAAUGGAGUUUAUCAUG, GGAUCUUCUCGAUCUAACAAAAAAGACAAAUCUGCCACAAAGCUUGAGAACAUCUUCGGAUGCAGAGGCGGCAGCCUUCGGUGGCGCGAUAGCGCCAACGUUCUCAACUAUGACAUGCAAUACGCGUGCUCUGUUGAAUGGAGGUUAUCAUG is higher in “polymerase ribozyme fitness (log ratio)” value: -2.14 for the first, -1.82 for the second.

Compared with GGAUCUUCUCGAUCUAACAAAAAAGACAAAUCUGCCACAAAGCUUGAGAACAUCUUCGGAUGCAGAGGCGGCAUCCUUCGGUAGGGCGAUAGCGCCAACGUUCUCAACUAUGACACGCAAAACGCUUGCUCCGUUGAAUGGAGUUUAUAAUG, GGAUCUUCUCGAUCUAACAAAAAAGACAAAUCUGCCACAAAGCUUGAGAACAACUUCGGAUGCAGAGGCGGCAGCCUUCGGUGGCGCGAUAGCGCCAACGUUCUCAACUAUGACACGCAAAACGCGUGCUCCGUUGAAUGGAGUUUAUCAUG is higher in “polymerase ribozyme fitness (log ratio)” value: ≤ -4.2 for the first, -1.59 for the second.

First: GGAUCUUCUCGAUCUAACAAAAAAGACAAAUCUGCCACAAAGCUUGAGAACAUCUUCGGAUGCAGAGGCGGCAGCCUUCGGUGGCGCGAUAGCUCCAACGUUCUCAACUAUGACACGCAACACGCGUGCUCCGUUGAAUGGAGUUUAUCAUG
Second: GGAUCUUCUCGAUCUAACAAAAAAGACAAAUCUGCCACAAAGCUUGAGAACAUCUUCGGAUGCAGAGGCGGCAGCCUUCGGUGGCGCGAUAACGCCAACGGUCUCAACUAUGACACCCAAAACGCGUGCUCCGUUGAAUGGAGUUUAUCAUG
The “polymerase ribozyme fitness (log ratio)” value of the first is higher: -2.21 for the first, -3.96 for the second.

First: GGAUCUUCUCGAUCUAACAAAAAAGACAAAUCUGCCACAAAGCUUGAGAACAUCUUCGGAUGCAGAGGCGGCAGCCUUCGGUGGCGCGAUAGCACCAACGUUCUCAACUAUGACAGGCAAAACGCGUGCUCCGUUGAAUGGAGUUUAUCAUG
Second: GGAUCUUCUCGAUCUAACAAAAAAGACAAAUCUGCCACAAAGCUUGAGAACAUCUUCGGAUGCAGAGGCGCCAGCCUUCGGUGGCGCGAUUGCGCCAACGUUCUCAACUAUGACACGCAAAACGCGUGCUCCGUUGAAUGGAGUUUAUCUUG
The “polymerase ribozyme fitness (log ratio)” value of the first is higher: -1.53 for the first, ≤ -4.2 for the second.

Compared with GGAUCUUCUCGAUCUAACAAAAAAGACAAAUCUGCCACAAAGCUUGAGAACAUCUUCGGAUGCAGAGGCGGCAGCCUUCGGUGGCGCGAUAGAGCCAACGUUCUCAACUAUGACACGCAAAACGCGUGCUCCGUUGAAUGGAGUUUAUCAUG, GGAUCUUCUCGAUCUAACAAAAAAGACAAAUCUGCCACAAAGCUUGAGAACAUCUUCGGAUGCACAGGCGGCAGCGUUCGGUGGCGCGAUACCGCCAACAUUCUCAACUAUGACACGCAAAACGGGUGCUCCGUUGAAUGGAGUUUAUCAUG is lower in “polymerase ribozyme fitness (log ratio)” value: -3.33 for the first, ≤ -4.2 for the second.

Compared with GGAUCUUCUCGAUCUAACAAAAAAGACAAAUCUGCCACAAAGCUUGAGAACAUCUUCGGAUGCAGAGGCGGCAGCCUUCGGUGGCGCGAUAGCGCCAACGUUCUCAACUAUGACAUGCAAAACGCGUGCUCCGUUGAAUGGAGUUUAUCAUG, GGAUCUUCUCGAUCUAACAAAAAAGACAAAUCUGCCACAAAGCUUGAGAACAUCUUCGGAUGCAGAGGCGGCAGCCUUCGGUGGCGCGAUAGCGCCAAAGUUCUCAACUAUGACACGCAAAACGCGUGCUCCGUUGAAUGGAGUAUAUCAUG is lower in “polymerase ribozyme fitness (log ratio)” value: -1.34 for the first, -3.7 for the second.

GGAUCUUCUCGAUCUAACAAAAAAGACAAAUCUGCCACAAAGCUUGAGAACAUCUUCGGAUGCAGAGGCGGCAGCCUUCGGUGGCGCGAUAGCGGCAACGUUCUCAACUAUGACUCGCAAAACGCGUGCUCCGUUGAAUGGAGUUUAUCAUG and GGAUCUUCUCGAUCUAACAAAAAAGACAAAUCUGCCACAAAGCUUGAGAACAUCUUCGGAUGCAGAGGCGGCAGCCUUCGGUGGCCCGAUAGCGCCAAUGUUCGCAACUAUGACAGGCAAAACGCGUGCUCCGUUGAAUGGAGUUUAUCAUG cannot be ordered by “polymerase ribozyme fitness (log ratio)” value: ≤ -4.2 for the first, ≤ -4.2 for the second.

In the case of GGAUCUUCUCGAUCUAACAAAAAAGACAAAUCUGCCACAAAGCUUGAGAACAUUUUCGGAUGCAGAGGCGGCAGCCUUCGGUGGCGCGAUAGCGCCAACGUUCUCAACUAUGACACGCAAAACGCGUGCUCCGUUGAAUGGAGUUUAUCAUG, the “polymerase ribozyme fitness (log ratio)” value is reported as -1.32.
